Read-outs that look alike come from different tables or passages of the source.
What was measured:
[1] = test system: oral (buccal) mucosa cells (TR146); test: Annexin positive cell population against radiation damage; type: cell-based, human; details: for % Apoptotic cells: Annexin positive
Procedure: Oral buccal mucosal cells (TR146) were incubated overnight in 5% CO2 incubator at 37° C. for 24 h. […] After 24 h of treatment, cells were exposed to damage (5-FU 5 mM) for 1.25 h for chemotherapy induced inflammation and exposed to gamma radiation (3.5 kGy) using Cobalt 60 for radiation induced inflammation. After the exposure, the anti-apoptotic effect of SEQ ID NO 2 was determined by restoration of mitochondrial membrane depolarization by JC-1 staining and reduction in apoptotic cell populations (Annexin positive and subG0/G1 cells in cell cycle analysis).
To determine the reduction in apoptotic cell populations using annexin-v staining cells were gently harvested into pre-labeled sterile centrifuge tubes and centrifuged at 300×g for 5-7 min. Supernatant were discarded and the pellet was resuspended in 200 μl of fresh culture medium. 100 μl of cell suspension was transferred into pre-labeled sterile centrifuge tubes. 100 μl of Annexin-V reagent was added to each tube and incubated for 30 min at RT in dark. Cells stained for Annexin-V were then transferred into 96-well plates and acquired on flow cytometer (Guava technologies). Percentage of Annexin-V positive cells was calculated as follows:
={[% Annexin positive cells in 5-FU or radiation alone]−[% Annexin positive cells in (TI+5-FU) or (TI+radiation)]/% Annexin positive cells in 5-FU or radiation alone}*100

[2] = test system: oral (buccal) mucosa cells (TR146); test: Cytoprotective effect against 5-FU induced damage (MTT); type: cell-based, human
Procedure: The cell viability was assessed by (MTT) assay and compared with positive control (Cells treated with Amifostine, EGCG and EGF and negative assay (untreated cells), wherein the control was the cells that underwent chemotherapy/radiotherapy.
(§1) The protective effect of the recombinant lectin on survival of TR146 cells against 5-FU induced damage was determined using following calculations:
(§2) The viability of cells was determined as: % Cell viability=(100−% Cytotoxicity); • where, the percentage cytotoxicity corresponding to each treatment was calculated as: % Cytotoxicity=[(R−X)/R]*100, wherein X=Absorbance of cells treated with 5-FU or radiation damage/TI+5-FU, R=Absorbance of Control cells (Untreated) and Percentage protection was calculated as:
(§3) {(Absorbance of TI+5-FU or radiation)−(Absorbance of 5-FU or radiation alone)/(Absorbance of Untreated)−(Absorbance of 5-FU alone)}*100

TNF-α = TNF-α in jugular mucosa (ELISA), 5-FU induced OM in hamsters; type: in vivo, golden Syrian hamsters; details: for TNF-α levels, % Decrease vs G2: G2 = OM + Vehicle
Procedure: To induce OM, animals were administered (except normal control) 5-Fluorouracil (5-FU) by intraperitoneal route at doses of 60 mg/kg & 40 mg/kg respectively on first two days. On Day 4, under anesthesia, with aim of enhancing OM, mechanical irritation of the oral mucosa were done using wire brush. Treatment was initiated from Day 4 to Day 12. For group 3 animals 100 μl of vehicle comprising of standard drug Dexamethasone at 0.1 mg was instilled in buccal cheek pouch. For group 4, 5 and 6 animals 100 μl of vehicle comprising of SEQ ID NO. 2 at 0.25 mg, 0.5 mg & 1 mg, respectively was instilled in buccal cheek pouch. At the end of treatment period, cheek pouch of the hamsters was exposed, Mucositis scoring was carried out and images were captured. The animals were then humanely sacrificed, cheek pouch/jugular mucosa were isolated and used for biomarker estimation and histopathological investigation by using ELISA method and Hematoxylin and Eosin (H&E) staining, respectively.
Further, for biomarker estimation jugular mucosa was dissected out, tissue weighed and stored in ice cold 1×PBS. 100 mg of tissue was taken and in 1 ml of 1×PBS buffer. Supernatant of homogenate was used for analysis of TNF-α and Interleukin-1β using ELISA method as per manufacturers instruction. The levels of TNF-α and Interleukin-1β are given in Table 13, FIG. 2 and Table 14, FIG. 3, respectively.

[3] = test system: oral (buccal) mucosa cells (TR146); type: cell-based, human
Procedure: as §1, §2, §3

[4] = 0.01 μg/ml + Radiation (3.5 kGy)
[5] = 0.1 μg/ml + Radiation (3.5 kGy)

B1: SEQ ID NO 2: recombinant lectin, variant of the S. rolfsii lectin amino acid sequence (reported as Rec-2 in WO 2010/095143) (protein)
chain: TYKITVRVYQTNPDAFFHPVEKTVWKYANGGTWTITDDQHVLTMGGSGTSGTLRFHADNGESFTATFGVHNYKRWCDIVTNLAADETGMVINQQYYSQKNREEARERQLSNYQVKNAKGRNFQIVYTEAEGNDLHANLIIG
For B1, the “% Decrease in Apoptotic cells (with respect to radiation control)” value (shortened to “% Decrease in Apoptotic cells”) [1, 4] was −4.8%, the “% Apoptotic cells” value [1, 4] was 14.3% and the “% Decrease in Apoptotic cells” value [1, 5] was −7.3%. For the same molecule, the “% Apoptotic cells” value [1, 5] was 14.7%, the “% Decrease in Apoptotic cells” value ([1]; 1 μg/ml + Radiation (3.5 kGy)) was 56% and the “% Apoptotic cells” value ([1]; 1 μg/ml + Radiation (3.5 kGy)) was 6%. For the same molecule, the “% Decrease in Apoptotic cells” value ([1]; 10 μg/ml + Radiation (3.5 kGy)) was 62.2%, the “% Apoptotic cells” value ([1]; 10 μg/ml + Radiation (3.5 kGy)) was 5.1% and the “% Decrease in Apoptotic cells” value ([1]; 10 μg/ml + Radiation (3.5 kGy), listed as SEQ ID NO: 2) was 62.6%. For the same molecule, the “cell viability against 5-FU induced cell damage” value [2] was 56.8-78.4%, the “% Protection” value ([2]; 1 μg/ml + 5-FU (5 mM)) was 26% and the “% Protection” value ([2]; 10 μg/ml + 5-FU (5 mM)) was 50.6%. The “% Protection” value ([2]; 25 μg/ml + 5-FU (5 mM)) was 51%, the “% Protection” value ([2]; 50 μg/ml + 5-FU (5 mM)) was 63% and the “% Protection” value ([2]; 100 μg/ml + 5-FU (5 mM)) was 53%. The “TNF-α levels, Mean” value (TNF-α; G4, 0.25 mg/Animal) was 153.48 pg/mL, the “TNF-α levels, % Decrease vs G2” value (TNF-α; G4, 0.25 mg/Animal) was −23.77% and the “TNF-α levels, Mean” value (TNF-α; G5, 0.5 mg/Animal) was 155.76 pg/mL. The “TNF-α levels, % Decrease vs G2” value (TNF-α; G5, 0.5 mg/Animal) was −25.61%, the “TNF-α levels, Mean” value (TNF-α; G6, 1 mg/Animal) was 79.37 pg/mL and the “TNF-α levels, % Decrease vs G2” value (TNF-α; G6, 1 mg/Animal) was 36.00%. The “levels of TNF-α as compared to the untreated subjects” value (TNF-α; hamsters suffering from OM, in words) was “reduction”, the “% Protection” value [3, 4] was 2.5% and the maximum cytoprotection ([3]; 0.01 μg/ml-25 μg/ml, radiation) was 54.1%. The “% Protection” value [3, 5] was 14.1%, the “% Protection” value ([3]; 1 μg/ml + Radiation (3.5 kGy)) was 47.4% and the “% Protection” value ([3]; 10 μg/ml + Radiation (3.5 kGy)) was 54.1%. The “% Protection” value ([3]; 25 μg/ml + Radiation (3.5 kGy)) was 8.9%.
